Laboratory results as given in paper PMC12990809.

What was measured:
Assay in all cases: pulldown
[1] = biological target: T1, PK25912.1 V2I;D3L;F4R (Cannabis sativa) (UniProt A0A803Q7P0); details: 20 nM protein, 1.5 uM RNA pool; 20 mM HEPES pH 7.8, 70 mM KCl, 10 mM NaCl, 10% glycerol, 2 mM DTT, 0.1 ug/uL BSA; 30 min, 4 C
T1 sequence: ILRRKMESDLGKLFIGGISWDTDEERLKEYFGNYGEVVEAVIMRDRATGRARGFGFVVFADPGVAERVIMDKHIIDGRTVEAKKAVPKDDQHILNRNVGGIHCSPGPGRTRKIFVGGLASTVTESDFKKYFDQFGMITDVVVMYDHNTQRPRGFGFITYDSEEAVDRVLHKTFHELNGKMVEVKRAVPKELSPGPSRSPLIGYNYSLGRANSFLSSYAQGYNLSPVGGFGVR

[2] = biological target: T2, PK11774.1 (Cannabis sativa) (UniProt A0A7J6FQM5); details: 20 nM protein, 1.5 uM RNA pool; 20 mM HEPES pH 7.8, 70 mM KCl, 10 mM NaCl, 10% glycerol, 2 mM DTT, 0.1 ug/uL BSA; 30 min, 4 C
T2 sequence: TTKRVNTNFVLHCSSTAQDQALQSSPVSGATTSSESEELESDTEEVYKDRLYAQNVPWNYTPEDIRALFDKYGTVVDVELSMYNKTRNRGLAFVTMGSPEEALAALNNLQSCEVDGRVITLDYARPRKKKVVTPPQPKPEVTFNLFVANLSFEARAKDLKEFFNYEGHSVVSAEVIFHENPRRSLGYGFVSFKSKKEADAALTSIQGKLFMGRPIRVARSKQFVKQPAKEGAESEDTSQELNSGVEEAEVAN

[3] = biological target: SNRPB2 (Meleagris gallopavo) (UniProt G1N364); details: 20 nM protein, 1.5 uM RNA pool; 20 mM HEPES pH 7.8, 70 mM KCl, 10 mM NaCl, 10% glycerol, 2 mM DTT, 0.1 ug/uL BSA; 30 min, 4 C
SNRPB2 (Meleagris gallopavo), sequence (G1N364 entry or part of it): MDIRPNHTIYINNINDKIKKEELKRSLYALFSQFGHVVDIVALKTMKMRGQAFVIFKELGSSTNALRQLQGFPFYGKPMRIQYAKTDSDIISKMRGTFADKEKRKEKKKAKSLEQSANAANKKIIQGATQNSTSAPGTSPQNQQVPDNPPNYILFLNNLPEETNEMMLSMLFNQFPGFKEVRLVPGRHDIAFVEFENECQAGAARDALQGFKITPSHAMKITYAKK

[4] = biological target: T3, NEMVEDRAFT_v1g214798 (Nematostella vectensis) (UniProt A7SN30); details: 20 nM protein, 1.5 uM RNA pool; 20 mM HEPES pH 7.8, 70 mM KCl, 10 mM NaCl, 10% glycerol, 2 mM DTT, 0.1 ug/uL BSA; 30 min, 4 C
T3 sequence: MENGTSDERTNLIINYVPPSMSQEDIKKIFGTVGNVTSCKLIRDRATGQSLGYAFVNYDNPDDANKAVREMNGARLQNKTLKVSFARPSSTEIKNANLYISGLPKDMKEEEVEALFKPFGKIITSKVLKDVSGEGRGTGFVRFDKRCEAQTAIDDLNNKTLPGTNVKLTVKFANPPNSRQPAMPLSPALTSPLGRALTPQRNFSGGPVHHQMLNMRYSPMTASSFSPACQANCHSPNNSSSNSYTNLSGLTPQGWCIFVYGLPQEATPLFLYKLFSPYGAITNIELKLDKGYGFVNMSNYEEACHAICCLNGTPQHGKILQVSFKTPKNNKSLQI

u2af2b (Danio rerio) = u2af2b (Danio rerio) (UniProt A0ACM8Q3Q6); details: 20 nM protein, 1.5 uM RNA pool; 20 mM HEPES pH 7.8, 70 mM KCl, 10 mM NaCl, 10% glycerol, 2 mM DTT, 0.1 ug/uL BSA; 30 min, 4 C
u2af2b (Danio rerio), sequence (A0ACM8Q3Q6 entry or part of it): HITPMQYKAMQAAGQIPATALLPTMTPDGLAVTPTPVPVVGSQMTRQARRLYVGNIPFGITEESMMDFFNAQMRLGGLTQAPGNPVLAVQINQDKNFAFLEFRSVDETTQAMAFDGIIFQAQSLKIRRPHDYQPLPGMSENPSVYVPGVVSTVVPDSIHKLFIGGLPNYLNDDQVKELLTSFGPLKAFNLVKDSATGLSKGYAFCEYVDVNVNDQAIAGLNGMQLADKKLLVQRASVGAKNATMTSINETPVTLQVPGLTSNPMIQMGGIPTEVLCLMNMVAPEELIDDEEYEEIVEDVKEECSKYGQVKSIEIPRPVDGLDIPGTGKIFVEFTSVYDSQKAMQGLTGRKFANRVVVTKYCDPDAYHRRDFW

HNRNPC (Homo sapiens) = HNRNPC (Homo sapiens) (UniProt P07910); details: 20 nM protein, 1.5 uM RNA pool; 20 mM HEPES pH 7.8, 70 mM KCl, 10 mM NaCl, 10% glycerol, 2 mM DTT, 0.1 ug/uL BSA; 30 min, 4 C (protocol of this paper; not …); cited from earlier work
HNRNPC (Homo sapiens), sequence (P07910 1-131): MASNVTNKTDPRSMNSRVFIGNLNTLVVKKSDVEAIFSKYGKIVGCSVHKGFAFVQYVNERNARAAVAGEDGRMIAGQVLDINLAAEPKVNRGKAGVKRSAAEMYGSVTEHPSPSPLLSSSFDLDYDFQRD

[5] = biological target: T4, CPEB1 E201G;P348T;C438Y (Homo sapiens) (UniProt Q9BZB8); details: 20 nM protein, 1.5 uM RNA pool; 20 mM HEPES pH 7.8, 70 mM KCl, 10 mM NaCl, 10% glycerol, 2 mM DTT, 0.1 ug/uL BSA; 30 min, 4 C
T4 sequence: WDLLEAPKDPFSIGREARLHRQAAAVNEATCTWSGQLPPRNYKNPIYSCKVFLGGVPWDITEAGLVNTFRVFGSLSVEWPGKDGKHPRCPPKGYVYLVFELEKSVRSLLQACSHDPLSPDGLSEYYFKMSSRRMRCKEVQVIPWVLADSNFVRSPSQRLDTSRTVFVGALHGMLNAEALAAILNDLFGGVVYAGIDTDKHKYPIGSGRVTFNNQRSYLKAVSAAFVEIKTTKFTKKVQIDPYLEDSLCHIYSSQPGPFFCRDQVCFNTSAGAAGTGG

[6] = biological target: T5, nrd1 (Schizosaccharomyces pombe) (UniProt Q09702); details: 20 nM protein, 1.5 uM RNA pool; 20 mM HEPES pH 7.8, 70 mM KCl, 10 mM NaCl, 10% glycerol, 2 mM DTT, 0.1 ug/uL BSA; 30 min, 4 C
T5 sequence: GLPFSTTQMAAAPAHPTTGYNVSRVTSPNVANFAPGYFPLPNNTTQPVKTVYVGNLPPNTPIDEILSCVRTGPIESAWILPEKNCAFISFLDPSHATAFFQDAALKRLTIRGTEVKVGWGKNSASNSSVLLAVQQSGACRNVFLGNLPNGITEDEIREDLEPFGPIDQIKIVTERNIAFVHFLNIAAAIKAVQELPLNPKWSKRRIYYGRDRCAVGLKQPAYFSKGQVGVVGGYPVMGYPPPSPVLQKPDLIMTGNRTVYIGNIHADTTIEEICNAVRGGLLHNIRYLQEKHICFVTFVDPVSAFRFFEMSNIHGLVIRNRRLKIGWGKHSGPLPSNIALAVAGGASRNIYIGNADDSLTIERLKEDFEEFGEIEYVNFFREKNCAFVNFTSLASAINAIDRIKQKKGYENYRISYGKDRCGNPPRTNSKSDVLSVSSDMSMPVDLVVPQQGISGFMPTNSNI

[7] = biological target: T6, mei2 (Schizosaccharomyces pombe) (UniProt P08965); details: 20 nM protein, 1.5 uM RNA pool; 20 mM HEPES pH 7.8, 70 mM KCl, 10 mM NaCl, 10% glycerol, 2 mM DTT, 0.1 ug/uL BSA; 30 min, 4 C
T6 sequence: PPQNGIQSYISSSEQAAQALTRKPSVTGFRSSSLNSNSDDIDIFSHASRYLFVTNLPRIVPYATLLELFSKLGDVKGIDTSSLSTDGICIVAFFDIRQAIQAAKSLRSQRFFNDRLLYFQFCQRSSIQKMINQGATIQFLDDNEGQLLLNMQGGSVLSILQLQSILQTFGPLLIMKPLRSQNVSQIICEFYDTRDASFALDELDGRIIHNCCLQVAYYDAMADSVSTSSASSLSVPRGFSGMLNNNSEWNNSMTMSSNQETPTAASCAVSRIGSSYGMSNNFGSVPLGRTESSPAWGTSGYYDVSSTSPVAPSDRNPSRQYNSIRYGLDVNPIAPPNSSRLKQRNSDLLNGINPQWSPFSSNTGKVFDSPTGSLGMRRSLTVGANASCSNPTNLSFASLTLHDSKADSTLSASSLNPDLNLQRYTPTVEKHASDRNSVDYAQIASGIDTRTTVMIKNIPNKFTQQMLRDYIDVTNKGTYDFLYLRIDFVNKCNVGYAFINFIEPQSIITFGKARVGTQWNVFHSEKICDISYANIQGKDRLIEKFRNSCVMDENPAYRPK

In the case of UAGGAA [RNAcompete motif RNCMPT00430], the binding signal (z-score (mean of top ten 7-mers)) [1] is reported as 8.55.

With UGGAGNG [RNAcompete motif RNCMPT00403] the binding signal (z-score (mean of top ten 7-mers)) [2] was 10.9.

For UUGCAC [RNAcompete motif RNCMPT00425], the binding signal (z-score (mean of top ten 7-mers)) [3] was 7.95.

Work on UUNUUUU [RNAcompete motif RNCMPT00421] yielded a binding signal (z-score (mean of top ten 7-mers)) [4] of 11.9.

UUUUUC [RNAcompete motif RNCMPT00418] showed a binding signal (z-score (mean of top ten 7-mers)) (u2af2b (Danio rerio)) of 14.4.

In the case of UUUUUU [RNAcompete motif RNCMPT00025], the binding signal (z-score (mean of top ten 7-mers)) (HNRNPC (Homo sapiens)) is given as 15.8.

Substance UUUUUUA [RNAcompete motif RNCMPT00434] has a binding signal (z-score (mean of top ten 7-mers)) [5] of 13.2.

UUUUUUC [RNAcompete motif RNCMPT00414] gave a binding signal (z-score (mean of top ten 7-mers)) [6] of 11.9.

With UUUUUUG [RNAcompete motif RNCMPT00413] the binding signal (z-score (mean of top ten 7-mers)) [7] was 14.2.
